According to patent US9187558B2, “Anti-epithelial cell adhesion molecule (EpCAM) antibodies and methods of use thereof” (ACADEMIA SINICA, priority 2012, dated 2015):
Substitutions are numbered along the chain they refer to.

Key:
HCT116 sphere cells = experiment: Spheroid (tumorsphere formation) assay; assay type: cell-based, human
Experimental: Spheroid Assay. For spheroid formation, culture cells were disassociated into single cells. 5×10^3 cells were seeded at an ultra-low 6-well plate (CORNING™ for 6 days and were maintained in DMEM/F12 supplemented with B27 (INVITROGEN®), EGF (10 ng/ml) and FGF (25 ng/ml) twice a week. The spheres were counted under a microscope. For serum-induced differentiation assay, tumorspheres were cultured in matrigel-coated plate supplemented with DMEM containing 10% FBS for 7 days to induce the differentiation process.

EpICD cleavage = EpICD cleavage and cellular localization (confocal immunofluorescence, Western blot); assay type: cell-based, human; conditions: for EpICD cleavage: 24 h, TAPI 40 μM
Experimental: Immunofluorescent Staining. Cells cultured on cover slips were fixed in paraformaldehyde, washed, and then blocked with 1% bovine serum albumin in PBS for 10 min. Cells were incubated at room temperature with primary antibodies in 1% bovine serum albumin. After 1 h incubation, cells were washed and incubated with fluorescein isothiocyanate (FITC) goat anti-mouse antibody (Jackson ImmunoResearch Laboratories), Alexafluor488 goat-anti-mouse or Alexaflour568 goat-anti-rabbit (INVITROGEN®) antibodies. 4′,6-Diamidino-2-phenylindole (DAPI) was added for nuclear counter staining.
(§1) Immunoprecipitation and Western Blot Analysis. […] The supernatants were immunoprecipitated using anti-EpCAM antibodies.

[1] = tested on: vimentin, snail, and slug; experiment: EMT gene expression; assay type: cell-based, human
Experimental: as §1
RNA Extraction and Quantitative Real-Time RT-PCR. Total RNAs were prepared from the cell lines using ULTRASPEC RNA isolation reagent (Biotecx Laboratories, Houston, Tex.). cDNAs were reverse-transcribed using Super-Script III RNaseH-reverse transcriptase (INVITROGEN®, Carlsbad, Calif.) according to the manufacturer's instructions. Quantitative RT-PCR was performed by using the LightCycler480 System (Roche Applied Science). The gene expression level of each sample was normalized to the expression level of GAPDH in the same sample. The reactions were performed in triplicate, and S.D. values were calculated.

tumor invasiveness = experiment: Invasion assay (Matrigel transwell); assay type: cell-based
Experimental: Colony Formation and Invasion Assay. For colony formation assay, cells were seeded at a density of 5×10^3 in 6-well plate for 10 day, followed by fixing and staining with crystal violet. For invasion assay, cells (1×10^5) were seeded at a transwell insert (8-μm polycarbonate Nucleopore filters, Corning) coated with Matrigel (BD Biosciences) at room temperature for 30 min to form a genuine reconstituted basement membrane. After 24 h incubation, cells were fixed with methanol for 10 min, and non-invaded cells were then removed by cotton swap. The invaded cells were observed by staining with DAPI, imaged under an inverted fluorescent microscopy (Zeiss), and quantified by ImageJ software.

[2] = tested on: c-MYC, OCT4, NANOG, and SOX2 promoters; experiment: Luciferase reporter assay of reprogramming gene promoters; assay type: cell-based, human
Experimental: Luciferase Reporter Assay. Cells were seeded in a plate and co-transfected with pcDNA3.1, EpCAM, EpICD, or EpEX-expressing vectors (400 ng) and pGL4-Oct4-Luc, Nanog-Luc, Sox2-Luc, or c-Myc-Luc-expressing plasmid (100 ng) by PolyJET for 24 h. Promoter activities were measured by the Dul-Glo Luciferase kit (Promega), and the transfected efficiency was normalized by co-transfection with pRL-TK (20 ng) as an internal control.

release of EpEX = experiment: Release of EpEX into HCT116 culture supernatants (immunoprecipitation and Western blot); assay type: cell-based, human; conditions: HCT116 cells, 24 h; DAPT 50 μM, TAPI 40 μM
Source text: as §1

[3] = tested on: SAS and HCT116 cell lines; experiment: Apoptosis assay, Annexin V-FITC and PI flow cytometry; assay type: cell-based, human; conditions: 0-20 μg/ml, 6 h
Experimental: (§2) Apoptosis Assays. Cells were separately seeded and treated with 0-20 μg/ml mAbs for 6 h. Apoptotic cells were detected by Annexin V-FITC and PI and analyzed by a flow cytometer (BD imnmmunocytometry systems, San Jose, Calif.). Early apoptosis was measured with the Annexin V-FITC Apoptosis Detection kit II (BD Pharmingen, La Jolla, Calif.). Apoptotic nuclei were detected with propidium iodide (PI) staining.

[4] = tested on: HCT116 and tumorsphere (HCT116 sphere) cells; experiment: Hypodiploid DNA content by flow cytometry with PI staining; assay type: cell-based, human; conditions: tumor and tumorsphere cells
Experimental: as §2

[5] = tested on: EpCAM mutants (Y95, D96 on EGF-II domain); conditions: mutations in positions Y95 or D96 on EGF-II domain; 1 μg/ml antibody
Experimental: HEK293 cells at 80%-90% confluency in 6-well plates were transfected with plasmids of various EpCAMs. After two days transfection, the cells were washed with PBS. Cells were extracted with RIPA buffer, supplemented with a protease inhibitor mixture tablet and spun at 20,000 g for 30 min at 4° C. […] The signals were developed using enhanced chemiluminescence reagents (ECL) (Thermo Scientific, Rockford, Ill.).

[6] = tested on: SAS-derived oral cancer xenografts; experiment: SAS-derived oral cancer xenograft antitumor efficacy; conditions: n=6
Experimental: Animal Model for Analysis of Antitumor Efficacy. […] Treatments were administered through tail vein injection, 10 mg/kg twice a week, for 4 consecutive weeks, with a total dose of 80 mg/kg. […] The tumor volumes were calculated as length×(width)^2×0.52.

[7] = tested on: human cancer cells (SAS, NPC039, HCT116, SKOV3); experiment: Cellular ELISA, Western blot and FACS binding to cancer cell lines; conditions: Western blot, FACS
Experimental: ELISA. 96-well plates (Corning Costar, St. Louis, Mo.) were seeded with SAS (oral carcinoma), NPC, HCT116 (colon cancer), SKOV3 (ovarian cancer cell line), NNM and HUVEC cells. The plates fixed with 2% paraformaldehyde and blocked with 1% bovine serum albumin. OCAb9-1 was added to the plates and incubated for 1 h. The plates were then washed with PBS containing 0.1% (w/v) TWEEN® 20 (PBST0.1) and incubated with horseradish peroxidase-conjugated anti-mouse IgG (Jackson ImmunoResearch Laboratories) for another 1 h. After washing, the plates were incubated with substrate solution o-phenylenediamine dihydrochloride (SIGMA™). The reaction was stopped by adding 3 N HCl, and the plates were read using a microplate reader at 490 nm.
Flow Cytometry. SAS, HCT116 and NNM were dissociated with 0.25% trypsin-EDTA (1 mM) (INVITROGEN®) for 1-3 min. Cells were washed with fluorescence-activated cell sorting buffer (PBS containing 1% fetal calf serum) and then incubated for 1 h at 4° C. in fluorescence-activated cell sorting buffer with the OCAb9-1 and EpAb mAbs at dilutions that ranged from […]. Phycoerythrin-conjugated goat anti-mouse IgG was used as a secondary antibody (dilution 1:250; Jackson ImmunoResearch Laboratories (West Grove, Pa.) for 30 min at 4° C. After the final wash, the cells were re-suspended with 1% FBS in PBS and analyzed by flow cytometry (BD, San Jose, Calif.). […]

CCD-1112Sk normal cells = experiment: Cellular ELISA binding to normal foreskin cells; set-up: species or system human
[8] = HCT116 cells, sEpEX 2.5, 5 μg/ml

C[C@H](NC(=O)Cc1cc(F)cc(F)c1)C(=O)N[C@H](C(=O)OC(C)(C)C)c1ccccc1 [DAPT]
sphere-forming capacity (HCT116 sphere cells): decreasing
expression of soluble EpICD-v5 (10 kDa) (EpICD cleavage; 293T/EpCAM-v5 cells): reduced
EpICD cleavage (EpICD cleavage; HCT116 cells, DAPT 50 μM): inhibited EpICD cleavage
soluble EpICD signals in cytoplasm and nucleus (EpICD cleavage; HCT116 cells, DAPT 50 μM): blocked
expressions of vimentin, snail, and slug [1]: suppressed
tumor invasiveness (tumor invasiveness): decreasing
EpCAM-induced transcriptional activities of c-MYC, OCT4, NANOG, and SOX2 [2]: blocked
release of EpEX (release of EpEX): blocked the release of EpEX

TAPI
EpICD cleavage (EpICD cleavage; HCT116 cells, DAPT 50 μM): inhibited EpICD cleavage
release of EpEX (release of EpEX): blocked the release of EpEX

B1: sEpEX: soluble extracellular domain of EpCAM (protein, UniProt P16422 24-265, looked up)
extracellular domain: QEECVCENYKLAVNCFVNNNRQCQCTSVGAQNTVICSKLAAKCLVMKAEMNGSKLGRRAKPEGALQNNDGLYDPDCDESGLFKAKQCNGTSMCWCVNTAGVRRTDKDTEITCSERVRTYWIIIELKHKAREKPYDSKSLRTALQKEITTRYQLDPKFITSILYENNVITIDLVQNSSQKTQNDVDIADVAYYFEKDVKGESLFHSKKMDLTVNGEQLDLDPGQTLIYYVDEKAPEFSMQGLK
modifications: extracellular domain
notes: soluble extracellular domain of EpCAM
induction of EpICD cleavage (EpICD cleavage; [8]): inductions
induction of vimentin expression [1, 8]: inductions
reporter activities of c-MYC, OCT4, NANOG, and SOX2 ([2]; HCT116 cells, sEpEX 2 μg/ml): induced reporter activities

B2: EpAb2-6: one of five newly generated anti-EpCAM mAbs; VH SEQ ID NO: 2, VL SEQ ID NO: 3 (antibody, listed as Homo sapiens, V domains shown)
VH: EVQLVESGPELKKPGETVKISCKASGYTFTDYSMHWVKQAPGKGLKWMGWINTETGEPTFADDFKGRFAFSLETSARTTYLQINNLKNEDTATYFCARTAVYWGQGTSLTVSS
VL: DIQLTQSPSSLSASLGERVSLTCRASQEISVSLSWLQQKPDGTIKRLIYATSTLDSGVPKRFSGSRSGSDYSLTISSLESEDFADYYCLQYASYPWTFGGGTKLEIKRADAAPTVS
induction of cancer cell apoptosis [3]: could induce cancer cell apoptosis
tumorsphere formation (HCT116 sphere cells; 6 days treatment): suppressed tumorsphere formation effectively
hypodiploid DNA content [4]: induced hypodiploid DNA content
relative binding activity to EpCAM mutants vs wild type [5]: markedly reduction
tumor size of control PBS group relative to EpAb2-6 group ([6]; 10 mg/kg i.v. twice a week): 1.5 fold
median overall survival of tumor-bearing mice ([6]; SAS xenograft): 71 days

B3: hEpAb2-6: CDRs of EpAb2-6 grafted onto human IgG1 backbone; VH SEQ ID NO: 24, VL SEQ ID NO: 25 (antibody, V domains shown)
VH: VKLQESGPELKKPGETVKISCKASGYTFTDYSMHWVKQAPGKGLKWMGWINTETGEPTYADDFKGRFAFSLETSASTAYLQINNLKNEDTATYFCARTAVYWGQGTTVTVSS
VL: B2 VL with L4M, K39E, A84V
modifications: human IgG1 backbone; Humanized VH domain; Humanized VL domain
recognition of (binding to) human cancer cells [7]: recognized both SAS and HCT116 cancer cells
induction of cancer cell apoptosis [3]: induced cancer cell apoptosis
recognition of CCD-1112Sk normal cells (CCD-1112Sk normal cells): not CCD-1112Sk normal cells
